One test relates to rabbits. Nature of the test: Enzyme ImmunoAssay titers of polyclonal antibodies raised in rabbits to a Megi peptide. It is filed as in vivo, rabbit. The following applies: for 50% titer: test bleed 31 days after day 0 and day 21 boosts, KLH-conjugated peptide, unconjugated screening antigen. As for the experimental part:
Data sets were taken from the bleed after the day 0 and day 21 boosts. The animals were injected with a peptide of SEQ ID NO: 4 and were conjugated to keyhole limpet hemocyanin (KLH). The screening antigen is not conjugated to KLH so that the response solely to the peptide and not to KLH can be identified. The 50% titer is a dilution value where the signal is half-way between the peak and the baseline, so the higher the dilution value (titer), the greater the response to the antigen. The positive control is an internal control that was generated from ovalbumin antibodies in rabbit. At a dilution of 1:759,000, the absorbance fell within a range of 0.45 to 0.9. In the case of the response to SEQ ID NO: 4, there was a high response. The data shown in FIG. 9 from the prebleed sample obtained on Dec. 8, 2010 was <100 (negative) for both rabbits, CD 153 and CD 154.

The target in test [1] is T1, Megi (Homo sapiens, UniProt O43909).
T1 construct: Megi protein is expressed in human pancreatic cancer cells; endogenous in cells
T1 sequence (O43909 1-919): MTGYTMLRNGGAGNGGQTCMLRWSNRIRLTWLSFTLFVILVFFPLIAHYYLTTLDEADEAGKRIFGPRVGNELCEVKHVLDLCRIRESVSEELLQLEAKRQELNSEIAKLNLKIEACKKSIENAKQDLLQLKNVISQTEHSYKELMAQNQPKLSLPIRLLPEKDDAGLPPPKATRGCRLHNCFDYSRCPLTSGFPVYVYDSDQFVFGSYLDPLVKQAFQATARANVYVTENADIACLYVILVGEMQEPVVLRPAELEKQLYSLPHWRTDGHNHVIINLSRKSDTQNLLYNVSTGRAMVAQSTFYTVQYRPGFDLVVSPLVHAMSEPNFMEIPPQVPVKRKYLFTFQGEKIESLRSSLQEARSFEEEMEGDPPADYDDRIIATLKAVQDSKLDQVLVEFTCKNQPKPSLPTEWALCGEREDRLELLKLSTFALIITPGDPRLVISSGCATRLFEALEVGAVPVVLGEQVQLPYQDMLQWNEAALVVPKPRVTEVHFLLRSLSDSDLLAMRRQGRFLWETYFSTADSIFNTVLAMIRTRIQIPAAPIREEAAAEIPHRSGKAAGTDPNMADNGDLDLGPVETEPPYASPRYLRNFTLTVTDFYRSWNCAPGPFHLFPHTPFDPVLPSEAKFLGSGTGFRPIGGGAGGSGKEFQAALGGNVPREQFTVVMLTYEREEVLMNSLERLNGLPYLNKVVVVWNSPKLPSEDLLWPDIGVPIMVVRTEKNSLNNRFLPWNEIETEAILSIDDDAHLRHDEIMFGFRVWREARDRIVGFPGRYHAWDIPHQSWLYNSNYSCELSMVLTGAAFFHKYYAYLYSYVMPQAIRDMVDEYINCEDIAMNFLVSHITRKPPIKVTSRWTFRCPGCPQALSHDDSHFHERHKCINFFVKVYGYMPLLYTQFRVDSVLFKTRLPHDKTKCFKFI
Nature of the test: Western blot analysis of Megi in cytosolic and nuclear fractions of adenocarcinoma cells. The following applies: Reg peptide 167 nM; 30 minutes; vs cells not treated with Reg peptide; FIG. 7g vs 7e. Type of test: cell-based. As for the experimental part:
The Western blot analysis of cytosolic and nuclear fractions isolated at the indicated time points with Reg peptide accelerating time of Megi translocation from the cell surface membrane to nucleus. Adenocarcinoma cells were seeded in T75 flasks in Dulbecco's Modified Eagle media containing 10% fetal bovine serum. The cells were incubated at […], 5% CO2 for 24 hours and then treated with Reg peptide at the final concentration of 167 nM. This treatment was performed once a day for four days. On the fifth day the cells were broken to obtain the cell lysates. In these cell extracts the total protein levels were determined, and 50 micrograms of total protein, were used to perform the western blot analysis. The samples containing 50 micrograms of proteins were diluted in loading buffer and loaded into each well of the gel. For gels run under reducing conditions, buffer also contained 5% of the reducing agent beta-mercaptoethanol
Analyses were performed from cytoplasmic extracts were obtained in 10 mM HEPES (pH 8.0), 1 mM EDTA, 1.5 mM MgCl2, 10 mM KCl, 0.5 mM DTT, 200 mM sucrose and 0.5% Nonidet P-40. Nuclear extracts were obtained in 20 mM HEPES (pH 7.9), 0.75 mM MgCl2, 210 mM NaCl, 50 mM KCl, 1 mM EDTA, 10% glycerol, and 0.5 mM of dithiothreitol. […] Secondary signals were developed with chemiluminescence substrate and analyzed by autoradiography.
A general note: In western blotting, separated proteins are transferred to a membrane and probed.

Test [2] has as its target T1, Megi. Kind of test: Cy3 immunofluorescent staining of Megi in human pancreatic adenocarcinoma cells. It is filed as cell-based. The following applies: 167 nM Reg peptide added to human pancreatic adenocarcinoma cells; FIG. 6b vs 6a. The method, then: To determine the presence of Megi via immunofluorescence, a continuous tumor-cell line from a human carcinoma of the exocrine pancreas were cultured in Dulbecco's Modified Eagle Medium containing 4.5 g/L glucose, 1:5 g/L sodium bicarbonate, 4 mM L-glutamine, and 10% fetal bovine serum. Cells were seeded at 50% confluence in standard growth medium. Twenty-four hours after seeding, cells were differentiated in serum free medium. Cells were mounted on cover slips and fixed in 4% paraformaldehyde and permeabilized with 0:2% Triton X-100. After being washed and blocked, cells were incubated with rabbit polyclonal anti-Megi antibody and a CY3-conjugated goat-anti-rabbit labeled fluorescent antibody. Antibodies were used at a 1:200 dilution. Coverslips were mounted and staining was analyzed on a Zeiss Axiovert 220M microscope powered by Axiovision 4.0 software with Z-stack acquisition, 3D-deconvolution, and 4D rendering modules.
Utilizing Cy3 immunofluorescent staining of Megi in human pancreatic adenocarcinoma cells in standard medium, there is immunofluorescent staining of Megi (FIG. 6a), which is well-defined at the cell borders indicating surface expression of Megi on the plasma membrane with visibly undetectable levels of Megi in the nucleus. […]

The target in test [3] is T1, Megi. Nature of the test: Immunofluorescent nuclear analyses of Megi translocation (Cy3 with DAPI overlay). The following applies: cells grown in serum-free medium with 150 μM Reg peptide; FIG. 8c, 8f. Type of test: cell-based. From the text: Immunofluorescent analyses of Megi are shown in the upper panels (FIG. 8a, FIG. 8b and FIG. 8c) indicated by the Cy3 immunofluorescent staining of Megi. […] The arrows in FIG. 8a and FIG. 8d delineate the cell borders, whereas the nuclei are shown in light grey contrast in FIG. 8d.
The middle images (FIG. 8b and FIG. 8e) are cells grown in SFM. Megi is localized in the cytoplasm, as indicated by cytoplasmic Cy3 staining. The arrows in FIG. 8b and FIG. 8e show the lack of staining in the position of the nuclei. […] In the lower image (FIG. 80, there is an overlap of Megi-Cy3 staining and nuclear DAPI staining that corroborates that there is nuclear localization of Megi indicated by the arrows in FIG. 8f. In the lower image (FIG. 8f) of cells grown in SFM and Reg peptide, the arrows indicate the position of the nuclei, which now stains for Megi. Scale bar=20 μm in all images.
Immunofluorescent analyses are shown in the upper, panels (FIG. 8a, FIG. 8b and FIG. 8c) indicated by the Cy3 immunofluorescent staining of Megi. […]

A further test has as its system Megi receptor. The following applies: rat hippocampus; effect abolished by downregulating Megi by shRNA; cited from earlier work.

Here are results for 3 molecules from patent publication US20130216545A1, “Early Diagnosis and Novel Treatment of Cancer” (priority 2012, published 2013).

For the molecule “SEQ ID NO: 4: 20 amino acid Megi peptide (amino acids 17-36) used as immunogen to raise polyclonal antibodies in rabbits (CKKSIENAKQDLLQLKNVIS)”, the 50% titer is on record as 36,000 in the test on rabbits (rabbit CD 153) and 125,000 with rabbits (rabbit CD 154). The “response to the antigen” value in the test with rabbits (rabbits immunised with KLH-conjugated peptide) is on record as “high response”.

“Reg peptide: common Reg peptide sequence (SEQ ID NO: 10) selected from Reg1α, Reg1β, Reg3α and RegIV, synthesized by Bachem (IGLHDPTQGTEPNG)”: the “nuclear levels of Megi (Megi nuclear translocation)” value with Megi [1] was “higher nuclear levels of Megi”. Moreover, the “cellular staining of Megi” value with Megi [2] is reported as “greater expression of Megi inside of the cell”. For the same molecule, the “subcellular localization of Megi” value in the test with Megi [3] is given as “translocation of Megi into the nucleus”.

B1: recombinant Reg1α: recombinant regenerating islet-derived 1 alpha protein used by Van Ba on rat hippocampus (protein)
chain: QEAQTELPQARISCPEGTNAYRSYCYYFNEDRETWVDADLYCQNMNSGNLVSVLTQAEGAFVASLIKESGTDDFNVWIGLHDPKKNRRWHWSSGSLVSYKSWGIGAPSSVNPGYCVSLTSSTGFQKWKDVPCEDKFSFVCKFKN
Consider B1, for which the neurite outgrowth result in the test with Megi receptor is reported as “increased neurite outgrowth”.
